Measurements as given in US20230416333A1 (SHATTUCK LABS, published 2023).

What was measured:
[1] = target: T1, CD19 expressed on the cell surface (UniProt P15391 20-556); assay: flow cytometry on HEK293-CD19 cells, anti-Fc detection
T1 construct: whole, on cells; also called HEK293-CD19 cells; CD19 on Daudi cells
T1 sequence (looked up): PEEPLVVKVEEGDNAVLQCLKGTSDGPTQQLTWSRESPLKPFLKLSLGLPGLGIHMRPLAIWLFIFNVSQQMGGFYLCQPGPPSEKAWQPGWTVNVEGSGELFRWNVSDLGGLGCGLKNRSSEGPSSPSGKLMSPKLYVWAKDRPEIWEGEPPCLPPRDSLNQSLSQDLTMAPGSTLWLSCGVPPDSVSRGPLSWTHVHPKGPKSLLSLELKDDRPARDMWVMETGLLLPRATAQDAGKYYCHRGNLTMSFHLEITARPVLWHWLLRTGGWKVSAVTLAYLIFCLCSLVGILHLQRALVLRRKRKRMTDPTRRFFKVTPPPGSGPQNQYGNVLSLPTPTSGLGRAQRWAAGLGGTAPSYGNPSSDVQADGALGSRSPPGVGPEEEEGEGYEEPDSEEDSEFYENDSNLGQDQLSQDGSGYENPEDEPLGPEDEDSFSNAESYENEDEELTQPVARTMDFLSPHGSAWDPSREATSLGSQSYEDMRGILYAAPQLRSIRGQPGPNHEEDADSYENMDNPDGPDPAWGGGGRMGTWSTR

[2] = target: T1, CD19 expressed on the cell surface; assay: flow cytometry on Daudi cells; Daudi cells (CD19+), flow cytometry
[3] = target: T2, recombinant CD19-His protein (human, UniProt P15391 20-291); assay: Octet (ForteBio) BLI, recombinant CD19-His immobilized on biosensor
T2 construct: Immobilized on the Octet biosensor; also called Human CD19
T2 sequence (looked up): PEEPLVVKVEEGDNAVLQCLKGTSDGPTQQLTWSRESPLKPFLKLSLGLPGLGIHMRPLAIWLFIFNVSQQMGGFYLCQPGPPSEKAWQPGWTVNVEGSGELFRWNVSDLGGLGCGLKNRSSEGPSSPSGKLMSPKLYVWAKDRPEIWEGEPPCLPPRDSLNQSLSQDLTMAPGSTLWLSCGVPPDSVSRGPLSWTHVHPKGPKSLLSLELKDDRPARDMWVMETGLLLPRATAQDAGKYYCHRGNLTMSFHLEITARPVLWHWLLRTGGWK
Description: A heterodimer lacking CD19scFv was used as a negative control.

EC50 [1]: 0.89 nM | EC50 [2]: 5 nM | Kd [3]: 13.8 nM
B1: BTN2A1/3A1-Fc-CD19scFv GADLEN protein (heterodimer with charged polarized linkers) (Fc fusion)
chain 1: QFIVVGPTDPILATVGENTTLRCHLSPEKNAEDMEVRWFRSQFSPAVFVYKGGRERTEEQMEEYRGRTTFVSKDISRGSVALVIHNITAQENGTYRCYFQEGRSYDEAILHLVVAGLGSKPLISMRGHEDGGIRLECISRGWYPKPLTVWRDPYGGVAPALKEVSMPDADGLFMVTTAVIIRDKSVRNMSCSINNTLLGQKKESVIFIPESFMPSVSPCAGSGSRKGGKRGSKYGPPCPPCPAPEFLGGPSVFLFPPKPKDQLMISRTPEVTCVVVDVSQEDPEVQFNWYVDGVEVHNAKTKPREEQFNSTYRVVSVLTVLHQDWLSGKEYKCKVSSKGLPSSIEKTISNATGQPREPQVYTLPPSQEEMTKNQVSLTCLVKGFYPSDIAVEWESNGQPENNYKTTPPVLDSDGSFFLYSRLTVDKSRWQEGNVFSCSVLHEALHNHYTQKSLSLSLGKDEGGEDGSDIQMTQTTSSLSASLGDRVTISCRASQDISKYLNWYQQKPDGTVKLLIYHTSRLHSGVPSRFSGSGSGTDYSLTISNLEQEDIATYFCQQGNTLPYTFGGGTKLEITGGGSGGGSGGGSEVKLQESGPGLVAPSQSLSVTCTVSGVSLPDYGVSWIRQPPRKGLEWLGVIWGSETTYYNSALKSRLTIIKDNSKSQVFLKMNSLQTDDTAIYYCAKHYYYGGSYAMDYWGQGTSVTVSS
chain 2: not shown
notes: The residue ranges were counted from the printed parts; also called BTN2A1/3A1-Fc-CD19scFv heterodimeric protein; human BTN2A1/3A1-Fc-CD19scFv GADLEN protein
